Measured values taken from US20230406885A1, “CYCLIC PEPTIDES FOR TRAPPING INTERLEUKIN-1 BETA” (MERCK SHARP & DOHME LLC, priority 2022, published 2023).
*1 amine or outer side, *2 acyl side, *3 side chain or, on linkers, in order; H or OH if unused. [ ]: non-standard residue; d: D form. TyrEtNAc = L-tyrosine O-ethyl acetamide, (S)-3-(4-(2-acetamidoethoxy)phenyl)-2-aminopropanoic acid, CC(=O)NCCOc1ccc(C[C@H](N[*:1])C(=O)[*:2])cc1; 3Pal4Ph4CO2H = (S)-4-(5-(2-amino-2-carboxyethyl)pyridin-2-yl)benzoic acid, O=C([C@H](Cc1ccc(-c2ccc(C(=O)[*:3])cc2)nc1)N[*:1])[*:2]; Pro(trans-4-NH2) = O=C([C@@H]1C[C@@H](N[*:3])CN1[*:1])[*:2]; Bip(4'-COOH) = N[C@@H](Cc1ccc(-c2ccc(C(=O)O)cc2)cc1)C(=O)O; 1Nal(3S-Me) = C[C@@H](c1cccc2ccccc12)[C@H](N)C(=O)O; hPhe(4-CF3) = N[C@@H](CCc1ccc(C(F)(F)F)cc1)C(=O)O; Ala(pyrimidin-5-yl) = N[C@@H](Cc1cncnc1)C(=O)O; Phe(4-COOH) = N[C@@H](Cc1ccc(C(=O)O)cc1)C(=O)O; Trp(7-aza) = N[C@@H](Cc1c[nH]c2ncccc12)C(=O)O; h3Pal(5-CN) = N#Cc1cncc(CC[C@H](N)C(=O)O)c1; hTyr = N[C@@H](CCc1ccc(O)cc1)C(=O)O; hPhe = N[C@@H](CCc1ccccc1)C(=O)O; dDab = NCC[C@@H](N)C(=O)O; dNMeA = CN[C@H](C)C(=O)O; Dab = NCC[C@H](N)C(=O)O; Dap = NC[C@H](N)C(=O)O; Aib = CC(C)(N)C(=O)O

B1: SEQ ID NO: 11 (peptide)
peptide: cyclo([3Pal4Ph4CO2H]W[Phe(4-COOH)]G[Pro(trans-4-NH2)][1Nal(3S-Me)]D[dNMeA]G[Bip(4'-COOH)]W[Dap][dA][hTyr])
SMILES: C[C@@H]1C(=O)NCC(=O)N[C@@H](Cc2ccc(-c3ccc(C(=O)O)cc3)cc2)C(=O)N[C@@H](Cc2c[nH]c3ccccc23)C(=O)N[C@@H](CN)C(=O)N[C@H](C)C(=O)N[C@@H](CCc2ccc(O)cc2)C(=O)N[C@@H](Cc2ccc(-c3ccc(C(=O)O)cc3)nc2)C(=O)N[C@@H](Cc2c[nH]c3ccccc23)C(=O)N[C@@H](Cc2ccc(C(=O)O)cc2)C(=O)NCC(=O)N2C[C@H](N)C[C@H]2C(=O)N[C@@H]([C@@H](C)c2cccc3ccccc23)C(=O)N[C@@H](CC(=O)O)C(=O)N1C
B2: SEQ ID NO: 115 (peptide)
peptide: cyclo([TyrEtNAc]W[Phe(4-COOH)]G[Pro(trans-4-NH2)][1Nal(3S-Me)]D[dNMeA]G[Bip(4'-COOH)]W[Dab][dA][hPhe])
SMILES: CC(=O)NCCOc1ccc(C[C@@H]2NC(=O)[C@H](CCc3ccccc3)NC(=O)[C@@H](C)NC(=O)[C@H](CCN)NC(=O)[C@H](Cc3c[nH]c4ccccc34)NC(=O)[C@H](Cc3ccc(-c4ccc(C(=O)O)cc4)cc3)NC(=O)CNC(=O)[C@@H](C)N(C)C(=O)[C@H](CC(=O)O)NC(=O)[C@H]([C@@H](C)c3cccc4ccccc34)NC(=O)[C@@H]3C[C@@H](N)CN3C(=O)CNC(=O)[C@H](Cc3ccc(C(=O)O)cc3)NC(=O)[C@H](Cc3c[nH]c4ccccc34)NC2=O)cc1
B3: SEQ ID NO: 107 (peptide)
peptide: cyclo([TyrEtNAc]W[Phe(4-COOH)]G[Pro(trans-4-NH2)][1Nal(3S-Me)]D[dNMeA]G[Bip(4'-COOH)]KG[Aib][hTyr])
SMILES: CC(=O)NCCOc1ccc(C[C@@H]2NC(=O)[C@H](CCc3ccc(O)cc3)NC(=O)C(C)(C)NC(=O)CNC(=O)[C@H](CCCCN)NC(=O)[C@H](Cc3ccc(-c4ccc(C(=O)O)cc4)cc3)NC(=O)CNC(=O)[C@@H](C)N(C)C(=O)[C@H](CC(=O)O)NC(=O)[C@H]([C@@H](C)c3cccc4ccccc34)NC(=O)[C@@H]3C[C@@H](N)CN3C(=O)CNC(=O)[C@H](Cc3ccc(C(=O)O)cc3)NC(=O)[C@H](Cc3c[nH]c4ccccc34)NC2=O)cc1
B4: SEQ ID NO: 108 (peptide)
peptide: cyclo([TyrEtNAc]W[Phe(4-COOH)]G[Pro(trans-4-NH2)][1Nal(3S-Me)]D[dNMeA]G[Bip(4'-COOH)]KG[dA][hTyr])
SMILES: CC(=O)NCCOc1ccc(C[C@@H]2NC(=O)[C@H](CCc3ccc(O)cc3)NC(=O)[C@@H](C)NC(=O)CNC(=O)[C@H](CCCCN)NC(=O)[C@H](Cc3ccc(-c4ccc(C(=O)O)cc4)cc3)NC(=O)CNC(=O)[C@@H](C)N(C)C(=O)[C@H](CC(=O)O)NC(=O)[C@H]([C@@H](C)c3cccc4ccccc34)NC(=O)[C@@H]3C[C@@H](N)CN3C(=O)CNC(=O)[C@H](Cc3ccc(C(=O)O)cc3)NC(=O)[C@H](Cc3c[nH]c4ccccc34)NC2=O)cc1
B5: SEQ ID NO: 114 (peptide)
peptide: cyclo([TyrEtNAc]W[Phe(4-COOH)]G[Pro(trans-4-NH2)][1Nal(3S-Me)]D[dNMeA]G[Bip(4'-COOH)][Trp(7-aza)]G[dDab][h3Pal(5-CN)])
SMILES: CC(=O)NCCOc1ccc(C[C@@H]2NC(=O)[C@H](CCc3cncc(C#N)c3)NC(=O)[C@@H](CCN)NC(=O)CNC(=O)[C@H](Cc3c[nH]c4ncccc34)NC(=O)[C@H](Cc3ccc(-c4ccc(C(=O)O)cc4)cc3)NC(=O)CNC(=O)[C@@H](C)N(C)C(=O)[C@H](CC(=O)O)NC(=O)[C@H]([C@@H](C)c3cccc4ccccc34)NC(=O)[C@@H]3C[C@@H](N)CN3C(=O)CNC(=O)[C@H](Cc3ccc(C(=O)O)cc3)NC(=O)[C@H](Cc3c[nH]c4ccccc34)NC2=O)cc1
B6: SEQ ID NO: 110 (peptide)
peptide: cyclo([TyrEtNAc]W[Phe(4-COOH)]G[Pro(trans-4-NH2)][1Nal(3S-Me)]D[dNMeA]G[Bip(4'-COOH)]KL[dA][hTyr])
SMILES: CC(=O)NCCOc1ccc(C[C@@H]2NC(=O)[C@H](CCc3ccc(O)cc3)NC(=O)[C@@H](C)NC(=O)[C@H](CC(C)C)NC(=O)[C@H](CCCCN)NC(=O)[C@H](Cc3ccc(-c4ccc(C(=O)O)cc4)cc3)NC(=O)CNC(=O)[C@@H](C)N(C)C(=O)[C@H](CC(=O)O)NC(=O)[C@H]([C@@H](C)c3cccc4ccccc34)NC(=O)[C@@H]3C[C@@H](N)CN3C(=O)CNC(=O)[C@H](Cc3ccc(C(=O)O)cc3)NC(=O)[C@H](Cc3c[nH]c4ccccc34)NC2=O)cc1
B7: SEQ ID NO: 117 (peptide)
peptide: cyclo([TyrEtNAc]W[Phe(4-COOH)]G[Pro(trans-4-NH2)][1Nal(3S-Me)]D[dNMeA]G[Bip(4'-COOH)]W[Dap][Aib][hTyr])
SMILES: CC(=O)NCCOc1ccc(C[C@@H]2NC(=O)[C@H](CCc3ccc(O)cc3)NC(=O)C(C)(C)NC(=O)[C@H](CN)NC(=O)[C@H](Cc3c[nH]c4ccccc34)NC(=O)[C@H](Cc3ccc(-c4ccc(C(=O)O)cc4)cc3)NC(=O)CNC(=O)[C@@H](C)N(C)C(=O)[C@H](CC(=O)O)NC(=O)[C@H]([C@@H](C)c3cccc4ccccc34)NC(=O)[C@@H]3C[C@@H](N)CN3C(=O)CNC(=O)[C@H](Cc3ccc(C(=O)O)cc3)NC(=O)[C@H](Cc3c[nH]c4ccccc34)NC2=O)cc1
B8: SEQ ID NO: 113 (peptide)
peptide: cyclo([TyrEtNAc]W[Phe(4-COOH)]G[Pro(trans-4-NH2)][1Nal(3S-Me)]D[dNMeA]G[Bip(4'-COOH)][Ala(pyrimidin-5-yl)]G[dDab][h3Pal(5-CN)])
SMILES: CC(=O)NCCOc1ccc(C[C@@H]2NC(=O)[C@H](CCc3cncc(C#N)c3)NC(=O)[C@@H](CCN)NC(=O)CNC(=O)[C@H](Cc3cncnc3)NC(=O)[C@H](Cc3ccc(-c4ccc(C(=O)O)cc4)cc3)NC(=O)CNC(=O)[C@@H](C)N(C)C(=O)[C@H](CC(=O)O)NC(=O)[C@H]([C@@H](C)c3cccc4ccccc34)NC(=O)[C@@H]3C[C@@H](N)CN3C(=O)CNC(=O)[C@H](Cc3ccc(C(=O)O)cc3)NC(=O)[C@H](Cc3c[nH]c4ccccc34)NC2=O)cc1
B9: SEQ ID NO: 118 (peptide)
peptide: cyclo([TyrEtNAc]W[Phe(4-COOH)]G[Pro(trans-4-NH2)][1Nal(3S-Me)]D[dNMeA]G[Bip(4'-COOH)]W[Dap][dA]A)
SMILES: CC(=O)NCCOc1ccc(C[C@@H]2NC(=O)[C@H](C)NC(=O)[C@@H](C)NC(=O)[C@H](CN)NC(=O)[C@H](Cc3c[nH]c4ccccc34)NC(=O)[C@H](Cc3ccc(-c4ccc(C(=O)O)cc4)cc3)NC(=O)CNC(=O)[C@@H](C)N(C)C(=O)[C@H](CC(=O)O)NC(=O)[C@H]([C@@H](C)c3cccc4ccccc34)NC(=O)[C@@H]3C[C@@H](N)CN3C(=O)CNC(=O)[C@H](Cc3ccc(C(=O)O)cc3)NC(=O)[C@H](Cc3c[nH]c4ccccc34)NC2=O)cc1
B10: SEQ ID NO: 116 (peptide)
peptide: cyclo([TyrEtNAc]W[Phe(4-COOH)]G[Pro(trans-4-NH2)][1Nal(3S-Me)]D[dNMeA]G[Bip(4'-COOH)]W[Dab][dA][hTyr])
SMILES: CC(=O)NCCOc1ccc(C[C@@H]2NC(=O)[C@H](CCc3ccc(O)cc3)NC(=O)[C@@H](C)NC(=O)[C@H](CCN)NC(=O)[C@H](Cc3c[nH]c4ccccc34)NC(=O)[C@H](Cc3ccc(-c4ccc(C(=O)O)cc4)cc3)NC(=O)CNC(=O)[C@@H](C)N(C)C(=O)[C@H](CC(=O)O)NC(=O)[C@H]([C@@H](C)c3cccc4ccccc34)NC(=O)[C@@H]3C[C@@H](N)CN3C(=O)CNC(=O)[C@H](Cc3ccc(C(=O)O)cc3)NC(=O)[C@H](Cc3c[nH]c4ccccc34)NC2=O)cc1
B11: SEQ ID NO: 109 (peptide)
peptide: cyclo([TyrEtNAc]W[Phe(4-COOH)]G[Pro(trans-4-NH2)][1Nal(3S-Me)]D[dNMeA]G[Bip(4'-COOH)]KG[dNMeA][hTyr])
SMILES: CC(=O)NCCOc1ccc(C[C@@H]2NC(=O)[C@H](CCc3ccc(O)cc3)NC(=O)[C@@H](C)N(C)C(=O)CNC(=O)[C@H](CCCCN)NC(=O)[C@H](Cc3ccc(-c4ccc(C(=O)O)cc4)cc3)NC(=O)CNC(=O)[C@@H](C)N(C)C(=O)[C@H](CC(=O)O)NC(=O)[C@H]([C@@H](C)c3cccc4ccccc34)NC(=O)[C@@H]3C[C@@H](N)CN3C(=O)CNC(=O)[C@H](Cc3ccc(C(=O)O)cc3)NC(=O)[C@H](Cc3c[nH]c4ccccc34)NC2=O)cc1
B12: SEQ ID NO: 111 (peptide)
peptide: cyclo([TyrEtNAc]W[Phe(4-COOH)]G[Pro(trans-4-NH2)][1Nal(3S-Me)]D[dNMeA]G[Bip(4'-COOH)]KS[dA][hPhe(4-CF3)])
SMILES: CC(=O)NCCOc1ccc(C[C@@H]2NC(=O)[C@H](CCc3ccc(C(F)(F)F)cc3)NC(=O)[C@@H](C)NC(=O)[C@H](CO)NC(=O)[C@H](CCCCN)NC(=O)[C@H](Cc3ccc(-c4ccc(C(=O)O)cc4)cc3)NC(=O)CNC(=O)[C@@H](C)N(C)C(=O)[C@H](CC(=O)O)NC(=O)[C@H]([C@@H](C)c3cccc4ccccc34)NC(=O)[C@@H]3C[C@@H](N)CN3C(=O)CNC(=O)[C@H](Cc3ccc(C(=O)O)cc3)NC(=O)[C@H](Cc3c[nH]c4ccccc34)NC2=O)cc1
B13: SEQ ID NO: 112 (peptide)
peptide: cyclo([TyrEtNAc]W[Phe(4-COOH)]G[Pro(trans-4-NH2)][1Nal(3S-Me)]D[dNMeA]G[Bip(4'-COOH)]KS[dA][hTyr])
SMILES: CC(=O)NCCOc1ccc(C[C@@H]2NC(=O)[C@H](CCc3ccc(O)cc3)NC(=O)[C@@H](C)NC(=O)[C@H](CO)NC(=O)[C@H](CCCCN)NC(=O)[C@H](Cc3ccc(-c4ccc(C(=O)O)cc4)cc3)NC(=O)CNC(=O)[C@@H](C)N(C)C(=O)[C@H](CC(=O)O)NC(=O)[C@H]([C@@H](C)c3cccc4ccccc34)NC(=O)[C@@H]3C[C@@H](N)CN3C(=O)CNC(=O)[C@H](Cc3ccc(C(=O)O)cc3)NC(=O)[C@H](Cc3c[nH]c4ccccc34)NC2=O)cc1

Target: Recombinant human IL-1β (BioLegend 579404) (human, UniProt P01584 117-269)
Test: cell-based or functional assay

B1 and B2 are within 1.5-fold of each other in “MRC5 IC50” value: 0.0908 nM for the first, 0.085 nM for the second.

First: B3
Second: B4
The “MRC5 IC50” value of the first is 1.8-fold lower: 0.0582 nM for the first, 0.102 nM for the second.

First: B5
Second: B6
The “MRC5 IC50” value of the first is 8.4-fold lower: 0.0233 nM for the first, 0.196 nM for the second.

First: B7
Second: B8
The “MRC5 IC50” value of the first is 1.7-fold higher: 0.16 nM for the first, 0.0918 nM for the second.

First: B9
Second: B10
The “MRC5 IC50” value of the first is 2-fold higher: 0.973 nM for the first, 0.492 nM for the second.

First: B11
Second: B12
The “MRC5 IC50” value of the first is 1.7-fold lower: 0.0775 nM for the first, 0.133 nM for the second.

With B13 the “MRC5 IC50” value was 0.0617 nM.
